Laboratory results: the DeepSol protein solubility set

Assay: soluble on expression in E. coli; label from the status in PepcDB or PDB records

Soluble on expression in E. coli, not soluble:
QVPILHRDADFLLRALQPDDFVRTSRYENANREHLAPWEPLRDPGYFSVDNARARTLLQVASMDEGEALLLLLLDPDDGEVLGRCSYTNIVRGVFQACHLGFSLAAAAQGRGLMARALRVANRYCFEQLGLHRIMASHLPRNARSERLLESLGFEKEGYARAYLKIAGVWEDHVLRALVDAPR
DAAKSHAPVVRSMEASLSPELKRELSDGIECIGIGGGDLHTRIVWTQYGTLPHRVGDVQCRYRIVLLPQNADAPQGWQTVWQGARPRNKDSKFALIRKIGENI
MGHHHHHHSHMSNLTPESSPELAKKSWFGNFISLEKEEQIFVVIKDKPLSSIKADIVHAFLSIPSLSHSVISQTSFRAEYKATGGPAVFQKPVKFQVDITYTEGGEAQKENGIYSVTFTLLSGPSRRFKRVVETIQAQLLSTHDPLRPSTCQTPLTVWK
MNDIIVLTGKVKFTITLDPGVWIFDDRKVDMDAYFSEPAPQPTEAEQEDEEIKKLSAFWDREIQEGAVFPPTLKTERRFLKEKIITGSFGMPFAPFLRNAEPHEDASELVIETEHGETVIPLEKAYDLIFAFSQNGKPLRDDGPVHIYFGDGSNREAPITHVRRLVVR
MEHNQEIMEQFLKLLSENGRAGQSEDLSRLLFYMDGMNRQLDAVRQELQTVKVQLAQAQDTPQKTVLQGMVDGLQSKVRQAQEKLDSLREKIMQCAANAVESFKRVGVTALDKAVSAMGIHKTLEAVQQNISGSLDDARKSIKKVETLGHELRSVGGHLKNAGRAVAGRETQAVDGGQEGRFQAAFLAPMRTAYKMLSSMNNTTLAAIGNVERLETAAEAVREAKKPPVRQTETQEKEQVKELEHKEEPTETQRREKPSIRQTLTEKSEPMDVSDILSDPANIQIFDTVLEESCRQWCDCIGDAPERASGKGFASFFYEVFEQKEQEYKAELKADTRSEKPSIRKALNEKKAEAAARPSPEPERKAPEAAR
MSLDKNLQTVIHDEHCGTLDFSLGDSRYSGELESGESYTVNFSVNPPEGSSIKVARAYIYWTWSKQGLDGIYPEFKSSLVHSGSSVLLLEEKRYTDTKGFVSRYDFFSGTDVYDLSEDISEAGNYSISLVNAGGDEKTFCVQGAGLLLVYENPDLPQTEYWINEGCDVLYAEYGIDPDMATTTTFFEGDICPENIENARLITVSPSGGYSSGTEARNRLFFNEKTGSIPVIGDIIKLLFAGGKSWKNVYQTNETVQIALDERSVGNYLDSNGNFASIQDNGDYLMATNAILLLEFKEPENPGKRYGEGHHHHHH
MGSDKIHHHHHHMAGRRAIAQNLLISNNDRQERTTRMNDKRNCFLPHDKLQHLIDSLQNAGYSCVGPQVRDGAIVYDVLTRAEQLPWGMRDHQEPGGYRLEQIPERKAFAFANGPQGIKPLLFKPQETVWRVERDEQGKLCFKPHQPDETPVAIIGSRACDLAAMSIQDKVFIENNKPDPRYKRRREQLFVVAVNCTYSSANCFCVSAGTGPAVNNSFDILMTEIEDGFVVEAGSDKGKKIMNQLDLHDAKSAQCTDAQNNVKQAAALQTKRIPLDNKRDLRDLLFSNLNHTRWDDVAERCLSCGNCTLVCPTCFCHSEVEKPGLDGCTSEHHREWDSCFTTGHTYLNGKIIRDDTKKQYRQWLTHKVGSWFDQFDTSGCVGCGRCVTWCPVGIDITEELAAISGESNARKIENE

Soluble on expression in E. coli, soluble:
GHMTDEDSEANALADPDNPPLSAEQLASAPRMPRIKIIRRALKLTQEEFSARYHIPLGTLRDWEQGRSEPDQPARAYLKIIAVDPEGTAAALRKGATGS
MSLRLQFQLKVDGLEDESLVVRGFEGQESLSDSVWRCEPCYGFRYQVDLASALSNLTAEQFVDQTAHLTILRDGQVVQQINGIVRQLSKGDTGHRHTFYSLTLVPALERLSLRSNSRIFQQQSVPEIISILLQEMGIEDYAFALKRECAQREFCVQYRETDLQFLHRIAAEEGLVYSHLHEAQKHTLLFTDSSDSQPKLAKPVPYNALAGGEINLPYVVDLQFKTTAQVSHTELKDYSFKKPAYGFTQRTQGKDIAYQQPNYEHFDAPGRYKDDANGKAFSQIRLEYLRRDALLADAKSDEPLLLAGVRFDLQDHLDHAMNRDWLVVQANHQGTQPQALQEEGGSGATTYSNQLKLIPAHITWRARPCAKPQVDGPMIATVVGPQGEEIYCDNFGRVKVHFPWDRYSSSNEKSSCWVRVAQEWAGSQYGSMAIPRVGHEVIVSFLNGDPDQPIITGRTYHATNTAPYALPDHKTKTVLRTETEGHHHHHH
KRKFACVECRQQKSKCDAHERAPEPCTKCAKKNVPCILKRDFRRTYKRARNEAIEKRFKELTRTLTNLTSDE
MSTPRPSLTLTLLQAREAAMSFFRPSLNQHGLTEQQWRVIRILRQQGEMESYQLANQACILRPSMTGVLARLERDGIVRRWKAPKDQRRVYVNLTEKGQQCFVSMSGDMEKNYQRIQERFGEEKLAQLLELLNELKKIKP
MSLTIIHPLLASRSAPNYRQSWRLAGVWRRAINLMTESGELLTLHRQGSGFGPGGWVLRRAQFDALCGGLCGNERPQVVAQGIRLGRFTVKQPQRYYLLRITPPAHPQALAVAWMQRAEETGLFGPLALAASDPLPAELRQFRHCFQAALNGVKTDWRHWLGKGPGLTPSHDDTLSGMLLAAWYYGALDARSGRPFFACSDNLQLVTTAVSVSYLRYAAQGYFASPLLHFVHALSCPKRTAAAIDSLLALGHTSGADTLLGFWLGQQLLQGKEGHHHHHH
MSLSDPTNNKPAPVLRESATFDRLTIQEIQRAAETGIYDIRGGGTKRKLPHFDDLLLLGASVSRYPLEGYREKCGTDVVLGNRFAKKPLYLKIPVTIAGMSFGALSANAKEALGRGATIAGTSTTTGDGGMTPEERGQSQHLVYQYLPSRYGMNPDDLRKADAIEIVLGQGAKPGGGGMLLGMKVTERVAGMRTLPVGVDQRSACRHPDWTGPDDLAIKIAEIREITDWEKPIYVKIGASRPYYDVKLAVKAGADVIVLDGMQGGTAATQEVFIEHVGIPILPAIPQAVQALQEMGMHRKVQLIVSGGIRNGADVAKAMALGADAVAIGTAALIALGDNHPRLDEELKKIGSAAGFYDDWQNGRDPAGITTQDPELSKRLDPVEGGRRLANYLRVLVLEAQTMARACGKSHLHNLDPEDLVALTVESAAMARVPLAGTSWIPGSGSKGIITITTDPNSSSVDKLAAALEHHHHHH
MHHHHHHSSGVDLGTENLYFQSMLPHSVLLEIQKELLDYKGVGISVLEMSHRSSDFAKIINNTENLVRELLAVPDNYKVIFLQGGGCGQFSAVPLNLIGLKAGRCADYVVTGAWSAKAAEEAKKFGTINIVHPKLGSYTKIPDPSTWNLNPDASYVYYCANETVHGVEFDFIPDVKGAVLVCDMSSNFLSKPVDVSKFGVIFAGAQKNVGSAGVTVVIVRDDLLGFALRECPSVLEYKVQAGNSSLYNTPPCFSIYVMGLVLEWIKNNGGAAAMEKLSSIKSQTIYEIIDNSQGFYVCPVEPQNRSKMNIPFRIGNAKGDDALEKRFLDKALELNMLSLKGHRSVGGIRASLYNAVTIEDVQKLAAFMKKFLEMHQL
AEEPTGVFLKKPDSVSVETGKDAVVVAKVNGKELPDKPTIKWFKGKWLELGSKSGARFSFKESHNSASNVYTVELHIGKVVLGDRGYYRLEVKAKDTCDSCGFNIDVEAPR
